Source: US20180002403A1 (CRESCENDO BIOLOGICS, published 2018)

Key:
[1] = molecular target: IL-17RA Fc fusion protein (human, UniProt Q96F46 33-320, limits assumed); assay: BIAcore T200, single-cycle kinetics, IL-17RA Fc fusion captured on protein G chip, 1:1 model
Method: (§1) Recombinant IL-17A (Peprotech AF-200-17) was diluted to 1 μg/ml in acetate buffer, pH 5.5 (BIAcore, cat# BR-100-52) and coupled to a CM5 Series S chip (cat # BR-1006-68) using amine-coupling chemistry (NHS-EDC amine-coupling kit, cat # BR-1000-50) and the BIAcore immobilization Wizard software. In this way 100RU of IL-17A was immobilised plus a blank surface (no IL-17A) was also prepared for reference subtraction. For IL-17RA, first a protein G chip was prepared by diluting protein G to 20 μg/ml in acetate buffer, pH 4 (BIAcore, cat# BR-100-49) and then coupled 1200 RU a CM5 Series S chip using amine coupling chemistry. This surface was then used to capture IL-17RA Fc fusion protein from solution: IL-17RA at 10 μg/ml in HBS injected for 10 seconds at 30 μl/min flow rate would capture approximately 100-150RU of IL-17RA onto the protein G surface.
(§2) Binding kinetics of optimized clone 1.1 (anti-IL-17A) and clone 2.1 (anti-IL-17RA) VH were determined by single-cycle kinetics. […] VH binding kinetics were then determined from the (blank subtracted) sensorgram traces using 1:1 binding models and BIAevaluation software.

[2] = molecular target: T1, Recombinant human IL-17A (Peprotech AF-200-17) (human, UniProt Q16552 24-155); assay: BIAcore T200, single-cycle kinetics, IL-17A amine-coupled to CM5 chip
T1 construct: Amine-coupled to a CM5 chip (100 RU) for BIAcore; also called recombinant IL-17A
T1 sequence (Q16552 24-155 limits assumed): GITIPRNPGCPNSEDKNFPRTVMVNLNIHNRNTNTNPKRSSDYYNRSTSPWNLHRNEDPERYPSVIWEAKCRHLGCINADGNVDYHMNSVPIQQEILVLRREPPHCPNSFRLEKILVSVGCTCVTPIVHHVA
Method: Binding kinetics of VH antibodies were measured on a BIAcore T200 instrument. Target (either recombinant IL-17A or IL-17RA) was diluted to 1 μg/ml in acetate buffer, pH 5.5 (BIAcore, cat# BR-100-52) and coupled to a CM5 Series S chip (cat # BR-1006-68) using amine-coupling chemistry (NHS-EDC amine-coupling kit, cat # BR-1000-50) and the BIAcore immobilization Wizard software. In this way 100RU of target was immobilised plus a blank surface (no target) was also prepared for reference subtraction.
Binding kinetics of VH antibodies were determined by single-cycle kinetics. VH antibodies were prepared in dilution series (typically 1:3 dilution series starting with 100 nM VH at the highest concentration), and then injected over the antigen-coated surfaces and also a blank surface, starting with the lowest concentration of VH and then working progressively up to the highest concentration. VH binding kinetics were then determined from the (blank subtracted) sensorgram traces using 1:1 binding models and BIAevaluation software.

[3] = molecular target: T1, Recombinant human IL-17A (Peprotech …); assay: BIAcore T200, single-cycle kinetics, IL-17A amine-coupled to CM5 chip, 1:1 model
Method: as §1, §2

Binder	fold improvement in affinity over parent clone 1.1 [3]	other results
clone 2.2 VH (VHH, Optimized variant of clone 2.1 from the recombination library; human VH single domain; also called optimized VH 2.2) VHH: QVQLVQSGAEVKKPGASVKVSCKASGYPFTSYDINWVRQATGRSLEWMGWMNPTNGNTVYAQKFQDRVTMTRNTSISTAYMELSSLRSEDTAVYFCARGRRDDWKNNYWGQGTLVTVSS		fold improvement in affinity over parent clone 2.1 [1]: 5 fold
clone 1.1 VH (VHH, Human VH single domain (no light chain) from a Tg/TKO mouse, lead raised against IL-17A; It was cloned in phagemid pUCG3; also called VH 1.1; parent VH 1.1) VHH: EVQLVESGGGLVQPGGSLRLSCAASGFTFSSYSMYWVRQAPGKGLEWVANIKQDGSEKYYVDSVKGRFTISRDNAKNSLFLQMNSLRAEDTAVYYCAKGEILPLHFDYWGQGTLVTVSS		binding result [2]: binds
clone 1.6 VH (VHH, Optimized variant of clone 1.1 from the recombination library; human VH single domain; also called optimized VH clone 1.6) VHH: EVQLVESGGGLVQPGGSLRLSCAASGFTFSSYSMYWVRQAPGKGLEWVAEIKQDGSEQYYVDSVKGRFTISRDNAKNSLYLQMNSLRAEDTAVYYCAKGEILPLYFDYWGQGTLVTVSS	≤ 10 fold	
clone 1.10 VH (VHH, Optimized variant of clone 1.1 from the recombination library; human VH single domain; also called optimized VH clone 1.10) VHH: VQLVESGGGLVQPGGSLRLSCAASGFTFSSYRMYWVRQAPGKGLEWVASIEQDGSEEYYVDSVKGRFTISRDNAKKSLFLQMNSLRAEDTAVYYCAKGEILPLYFDYWGQGTLVTVSS	≤ 10 fold	
